Measurements published in PMC7822592, “The half-life of the bone-derived hormone osteocalcin is regulated through O-glycosylation in mice, but not in humans” (eLife, 2020).
No end group written: not given here. O‑glycan = not defined here

Key:
[1] = Ex vivo half-life of mouse OCN in plasma; type: in vitro ADME; settings: 100 ng/ml; for % OCN from initial: Bglap-/- mouse plasma
Method: The mouse OCN ex vivo half-life assays were performed with fresh plasma (lithium heparin) collected from four independent Bglap-/- mice. Glycosylated OCN produced in HEK293 cells and non-glycosylated OCN, produced in bacteria as previously described ([Ferron et al., 2012]), were incubated at 100 ng/ml in plasma at 37°C and OCN level was measured at indicated time points using the total mouse OCN ELISA assay described previously ([Ferron et al., 2010b]). […] The detection antibody is a goat polyclonal antibody directed against the C-terminal region (amino acids 26 to 46) of mouse OCN (anti-CTERM OCN). This assay detects with the same sensitivity glycosylated and non-glycosylated mouse OCN at concentration of 50 ng/ml or less (Figure 3—figure supplement 2). Therefore, all samples were diluted to be in this range before being measured by the ELISA. Human OCN half-life assay was performed ex vivo using Bglap-/- mice plasma and human OCN at 60 ng/ml. Human OCN level was measured at different time point using the human ucOCN ELISA described above. At the experiment start point (T0), an aliquot of plasma was diluted in ELISA assay buffer and kept on ice for OCN measurements. In some experiments, plasma was heat-inactivated for 30 min at 56°C, or treated with EDTA (10 mM, Wisent), phenylmethylsulfonyl fluoride (PMSF, 10 mM, Sigma), pepstatin A (Pep A, 10 μM, Sigma) which inhibits aspartic proteases (pepsin, cathepsin D, renin, chymosin), RVKR (Dec-RVKR-CMK, 50 μM; Tocris) or talabostat (10 mM; Tocris). Results are calculated in percentage relative to the initial concentration of non-glycosylated and glycosylated OCN respectively.

human plasmin = molecular target: T1, human plasmin (Homo sapiens, UniProt P00747); assay: Plasmin enzymatic assay on OCN in heat-inactivated plasma; type: in vitro ADME; settings: 2hrs, 37°C; for % OCN from initial: heat-inactivated Bglap-/- plasma diluted two times in 100 mM Tris pH 7.5, 50 ng/ml, ELISA; for % OCN from initial in plasmin (0.3 U/ml): inset graph, heat-inactivated Bglap-/- plasma, 50 ng/ml
T1 construct: different concentration of human plasmin (Sigma); purchased Sigma P1867
Method: The plasmin enzymatic assay was performed on plasma ex vivo in the presence of non-glycosylated OCN and glycosylated OCN as follows: plasma from Bglap-/- mice was heat-inactivated for 30 min at 56°C, then diluted two times in the enzyme assay buffer containing 100 mM Tris buffer pH 7.5. Non-glycosylated OCN or glycosylated OCN was incubated at 50 ng/ml in the diluted plasma for two hours in the presence of different concentration of human plasmin (Sigma) ranging from 0 to 0.3 U/ml. After two hours, OCN level was measured using total mouse OCN ELISA. Results are represented as percentage of initial concentration of non-glycosylated and glycosylated OCN respectively.

T1 sequence (P00747 581-810 limits assumed): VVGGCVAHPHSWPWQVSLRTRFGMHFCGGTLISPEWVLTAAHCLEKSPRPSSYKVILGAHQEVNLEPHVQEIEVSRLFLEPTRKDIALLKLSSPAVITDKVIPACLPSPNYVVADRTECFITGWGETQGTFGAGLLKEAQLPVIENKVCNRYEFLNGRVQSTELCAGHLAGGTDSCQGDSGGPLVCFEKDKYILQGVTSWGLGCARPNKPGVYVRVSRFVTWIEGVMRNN
T1 sequence (P00747 97-580 partner limits assumed): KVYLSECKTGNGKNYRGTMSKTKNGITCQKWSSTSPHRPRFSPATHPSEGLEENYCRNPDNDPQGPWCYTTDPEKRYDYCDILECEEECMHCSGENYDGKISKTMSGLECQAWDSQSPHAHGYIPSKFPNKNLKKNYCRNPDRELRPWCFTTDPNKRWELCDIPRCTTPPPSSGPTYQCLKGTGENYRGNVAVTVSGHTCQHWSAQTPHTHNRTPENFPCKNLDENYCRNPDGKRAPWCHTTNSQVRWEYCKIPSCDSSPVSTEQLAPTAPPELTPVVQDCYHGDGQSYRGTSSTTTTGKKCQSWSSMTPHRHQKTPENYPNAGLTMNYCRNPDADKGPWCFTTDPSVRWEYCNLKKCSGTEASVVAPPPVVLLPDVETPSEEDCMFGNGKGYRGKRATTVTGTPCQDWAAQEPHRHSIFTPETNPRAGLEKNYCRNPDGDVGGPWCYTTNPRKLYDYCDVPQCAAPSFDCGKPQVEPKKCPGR

Substance: O-gly ucOCN: O-glycosylated uncarboxylated mouse osteocalcin produced and purified from HEK293 as Fc fusion, released by thrombin (YLGASVPS(O‑glycan)PDPLEPTREQCELNPACDELSDQYGLKTAYKRIYGITI; ends and bridges not checked; also: O-glycosylated (HexNAc, Hex, NANA); UniProt P86546 50-95, looked up)
- % OCN from initial ([1]; 37°C, 0 min, ELISA, replicate 1): 100.0%
- % OCN from initial ([1]; 37°C, 0 min, ELISA, replicate 2): 100.0%
- % OCN from initial ([1]; 37°C, 0 min, ELISA, replicate 3): 100.0%
- % OCN from initial ([1]; 37°C, 0 min, ELISA, replicate 4): 100.0%
- % OCN from initial ([1]; 37°C, 0 min, ELISA, replicate 5): 100.0%
- % OCN from initial ([1]; 37°C, 15 min, ELISA, replicate 1): 104.1%
- % OCN from initial ([1]; 37°C, 15 min, ELISA, replicate 2): 103.7%
- % OCN from initial ([1]; 37°C, 15 min, ELISA, replicate 3): 102.4%
- % OCN from initial ([1]; 37°C, 15 min, ELISA, replicate 4): 105.4%
- % OCN from initial ([1]; 37°C, 15 min, ELISA, replicate 5): 92.4%
- % OCN from initial ([1]; 37°C, 30 min, ELISA, replicate 1): 101.9%
- % OCN from initial ([1]; 37°C, 30 min, ELISA, replicate 2): 103.9%
- % OCN from initial ([1]; 37°C, 30 min, ELISA, replicate 3): 104.6%
- % OCN from initial ([1]; 37°C, 30 min, ELISA, replicate 4): 102.8%
- % OCN from initial ([1]; 37°C, 30 min, ELISA, replicate 5): 91.2%
- % OCN from initial ([1]; 37°C, 60 min, ELISA, replicate 1): 103.5%
- % OCN from initial ([1]; 37°C, 60 min, ELISA, replicate 2): 108.3%
- % OCN from initial ([1]; 37°C, 60 min, ELISA, replicate 3): 103.5%
- % OCN from initial ([1]; 37°C, 60 min, ELISA, replicate 4): 102.6%
- % OCN from initial ([1]; 37°C, 60 min, ELISA, replicate 5): 95.6%
- % OCN from initial ([1]; 37°C, 90 min, ELISA, replicate 1): 108.4%
- % OCN from initial ([1]; 37°C, 90 min, ELISA, replicate 2): 106.6%
- % OCN from initial ([1]; 37°C, 90 min, ELISA, replicate 3): 107.8%
- % OCN from initial ([1]; 37°C, 90 min, ELISA, replicate 4): 102.6%
- % OCN from initial ([1]; 37°C, 90 min, ELISA, replicate 5): 92.9%
- % OCN from initial ([1]; 37°C, 120 min, ELISA, replicate 1): 105.8%
- % OCN from initial ([1]; 37°C, 120 min, ELISA, replicate 2): 103.2%
- % OCN from initial ([1]; 37°C, 120 min, ELISA, replicate 3): 106.0%
- % OCN from initial ([1]; 37°C, 120 min, ELISA, replicate 4): 107.0%
- % OCN from initial ([1]; 37°C, 120 min, ELISA, replicate 5): 90.1%
- % OCN from initial ([1]; 37°C, 180 min, ELISA, replicate 1): 106.8%
- % OCN from initial ([1]; 37°C, 180 min, ELISA, replicate 2): 107.9%
- % OCN from initial ([1]; 37°C, 180 min, ELISA, replicate 3): 107.4%
- % OCN from initial ([1]; 37°C, 180 min, ELISA, replicate 4): 119.0%
- % OCN from initial ([1]; 37°C, 180 min, ELISA, replicate 5): 78.8%
- % OCN from initial ([1]; 37°C, 300 min, ELISA, replicate 1): 106.5%
- % OCN from initial ([1]; 37°C, 300 min, ELISA, replicate 2): 103.5%
- % OCN from initial ([1]; 37°C, 300 min, ELISA, replicate 3): 104.6%
- % OCN from initial ([1]; 37°C, 300 min, ELISA, replicate 4): 102.2%
- % OCN from initial ([1]; 37°C, 300 min, ELISA, replicate 5): 88.0%
- % OCN from initial ([1]; Figure 3D, 2hrs, 37°C, Not HI, ELISA, replicate 1): 100.8%
- % OCN from initial ([1]; Figure 3D, 2hrs, 37°C, Not HI, ELISA, replicate 2): 92.4%
- % OCN from initial ([1]; Figure 3D, 2hrs, 37°C, Not HI, ELISA, replicate 3): 106.8%
- % OCN from initial ([1]; Figure 3D, T0, ELISA, replicate 1): 101.5%
- % OCN from initial ([1]; Figure 3D, T0, ELISA, replicate 2): 94.9%
- % OCN from initial ([1]; Figure 3D, T0, ELISA, replicate 3): 103.6%
- % OCN from initial ([1]; Figure 3 supplement 3A, 37°C, T=2hours, replicate 1): 90.8%
- % OCN from initial ([1]; Figure 3 supplement 3A, 37°C, T=2hours, replicate 2): 95.5%
- % OCN from initial ([1]; Figure 3 supplement 3A, 37°C, T=2hours, replicate 3): 95.0%
- % OCN from initial ([1]; Figure 3 supplement 3A, T0, replicate 1): 105.0%
- % OCN from initial ([1]; Figure 3 supplement 3A, T0, replicate 2): 101.3%
- % OCN from initial ([1]; Figure 3 supplement 3A, T0, replicate 3): 93.7%
- stable in plasma for ([1]; fresh Bglap-/- mouse plasma (lithium heparin), 37°C, total mouse OCN ELISA, n = 4 plasma): more than 5 hr
- % OCN from initial (human plasmin; plasmin 0 U/ml, replicate 1): 96.7%
- % OCN from initial (human plasmin; plasmin 0 U/ml, replicate 2): 103.3%
- % OCN from initial (human plasmin; plasmin 0.024 U/ml, replicate 1): 81.4%
- % OCN from initial (human plasmin; plasmin 0.024 U/ml, replicate 2): 86.9%
- % OCN from initial (human plasmin; plasmin 0.12 U/ml, replicate 1): 63.3%
- % OCN from initial (human plasmin; plasmin 0.12 U/ml, replicate 2): 75.7%
- % OCN from initial (human plasmin; plasmin 0.3 U/ml, replicate 1): 34.5%
- % OCN from initial (human plasmin; plasmin 0.3 U/ml, replicate 2): 40.8%
- % OCN from initial in plasmin (0.3 U/ml) (human plasmin; replicate 1): 34.5%
- % OCN from initial in plasmin (0.3 U/ml) (human plasmin; replicate 2): 40.8%
- % OCN from initial in plasmin (0.3 U/ml) (human plasmin; replicate 3): 32.1%
- % OCN from initial in plasmin (0.3 U/ml) (human plasmin; replicate 4): 27.0%
- % OCN from initial in plasmin (0.3 U/ml) (human plasmin; replicate 5): 38.6%
